Test results as given in patent publication US20240350583A1, “COMPOSITION FOR PREVENTING OR TREATING FIBROTIC DISEASES, COMPRISING HAPLN1” (Chung Ang University Industry Academic Cooperation …, priority 2021, published 2024).
Entries after “also recorded” stand apart in the source; their conditions may differ.

Key:
[1] = may vary from cell to cell; related literature; cited from earlier work
[2] = tested on: human kidney renal tubule cell (Human Kidney 2, HK-2); assay: Anti-fibrotic efficacy in HK-2 cells (drug after TGFβ1), αSMA western blot; type: cell-based
Protocol: (1) Human kidney renal tubule cells (HK-2) were seeded (2.8×10^5 cells/well) in a […] according to the experimental scheme of FIG. 7A and incubated in RPMI 1640 Medium (11875-093, Gibco) including 10% FBS for 24 hours in an incubator at 37° C. 5% CO2.
(2) Afterwards, the plates were washed several times with PBS, and each well of the plate was treated with TGFβ1 (5 ng/ml) and incubated for 24 hours.
(3) Subsequently, the plates were then treated with the composition of the present disclosure (rhHAPLN1 protein content of 0, 5, 10, 20, and 50 ng/ml) and pirfenidone 0.2 mg/mL (200 μg/mL), respectively, and incubated for 48 hours.
(4) Each sample was then washed several times with ice-cold PBS, treated with radioimmunoprecipitation assay (RIPA) lysis and extraction buffer (Thermo Scientific) including protease and phosphatase inhibitors, scraped with a scraper, and transferred to an E-tube.
(§1) (5) By centrifugation (12000 rpm, 20 minutes, 4° C.), only the supernatant was obtained, and BCA assay was performed to obtain quantitative protein values.
(6) After quantification using the obtained quantitative value, cooking was performed at 100° C. for 3 minutes and then stored in a −20° C. refrigerator. […]
(11) After washing three times with TBST for 10 minutes each, the samples were detected by Chemidoc.

[3] = tested on: SAEMyoF system (small airway epithelial cells and adult fibroblasts); assay: BioMAP Fibrosis panel, SAEMyoF system (pulmonary fibrosis model), ELISA; type: cell-based
Description: (§2) The anti-fibrotic action effect of the composition of the present disclosure on pulmonary fibrosis and kidney fibrosis was verified by examining the expression level of various fibrosis markers using the BioMAP Fibrosis Panel (provided by Eurofins discovery).
(§3) BioMAP Fibrosis panel consists of three models, SAEMyoF system (co-culturing small airway epithelial cells and adult fibroblasts), REMyOF system (co-culture of renal proximal tubule epithelial cells and adult fibroblasts), and MyOF system (differentiated lung myofibroblasts). Here, the SAEMyoF system represents interstitial lung diseases (IDL), including pulmonary fibrotic diseases such as idiopathic pulmonary fibrosis (IPF), and the REMyOF system represents kidney fibrosis disease, which is associated with end-stage renal failure. However, experiments were conducted to confirm the effect of the MyoF system only on myofibroblasts.
(§4) (1) Each primary cell was used by pooling cells from multiple donors (n=3 to 6), and cells were first cultured in 96-well plates to confluence before adding a peripheral blood mononuclear cell (PBMC).
(§5) (2) Subsequently, the cells were then each treated with the composition of the present disclosure (rhHAPLN1 protein content of 0, 3.7, 11, and 33 ng/ml) at different concentrations and cultured for 1 hour.
(§6) (3) The plates were then treated with TNF and TGFβ1 and incubated for 48 hours.
(§7) (4) Direct enzyme-linked immunosorbent assay (ELISA) was performed on the expression levels of various biomarkers.
(§8) Each quantitative value was compared as a relative fold change compared to the vehicle control. Statistical processing was performed using unpaired t-test, significant differences vs vehicle control, *p<0.05, **p<0.01, and ***p<0.001.

[4] = tested on: renal proximal tubule epithelial cell (RPTEC); assay: Age-induced fibrosis of RPTEC (passage 11), αSMA western blot; type: cell-based; conditions: aged cells (P11); rhHAPLN1 100 ng/ml; 72 hours
Protocol: (1) Renal proximal tubule epithelial cell (RPTEC) of the 3rd passage culture and 10th passage culture were seeded (5.0×10^5 cells) in 60Φ culture dishes and cultured in complete renal epithelial cell medium (ATCC PCS-400-030+ATCC PCS-400-040) in an incubator at 37° C. 5% CO2 for 24 hours.
(2) Subsequently, the cells were then treated with the composition of the present disclosure (rhHAPLN1 protein content of 0, 10, and 100 ng/ml, respectively) and cultured for an additional 72 hours.
(4) After washing three times with ice-cold PBS, each well was treated with 300 μl of RIPA lysis and extraction buffer including protease inhibitors and phosphatase inhibitors, scraped with a scraper to harvest cells, and transferred to an E-tube.
as §1
(6) Using a 4% to 15% precast acrylamide PAGE gel, proteins were loaded at 20 μg per lane and run (80V-20 minutes, 120V-1 hour 30 minutes).
(7) Western blot was performed on the samples. Here, anti-αSMA Ab (Abcam, ab7817), anti-GAPDH Ab (Santa Cruz, sc-32233) were used as primary antibodies and HRP-conjugated anti-mouse IgG Ab (CST, #7076) as secondary antibodies.

[5] = tested on: REMyOF system (renal proximal tubule epithelial cells and adult fibroblasts); assay: BioMAP Fibrosis panel, REMyOF system (kidney fibrosis model), ELISA; type: cell-based
Description: as §2, §3, §4, §5, §6, §7, §8

[6] = regardless of rhHAPLN1 content (3.7, 11, 33 ng/ml)

Molecule | effective doses in cells [1] [µg/mL] | anti-fibrotic efficacy (αSMA) compared to pirfenidone 0.2 mg/ml ([2]; rhHAPLN1 50 ng/ml) | anti-fibrotic efficacy (αSMA) compared to composition that does not include rhHAPLN1 protein (FIG. 7B, FIG. 7C) ([2]; rhHAPLN1 10 to 50 ng/ml, 48 hours after 24 hours TGFβ1) | expression level of collagen I compared to vehicle control (FIG. 11A) [3, 6] | expression level of αSMA, fold change compared to vehicle control (FIG. 11A) ([3]; regardless of rhHAPLN1 content (3.7, 11, 33 ng/ml), TNF and TGFβ1 48 hours) [fold] | expression level of collagen I, fold change compared to vehicle control (FIG. 11A) ([3]; rhHAPLN1 11 ng/ml) [fold] | decrease of expression amount of αSMA protein compared to composition without rhHAPLN1 (FIG. 9B) [4] | optimal concentration for anti-fibrotic efficacy in the kidney (assumed) ([5]; collagen I) [ng/mL] | expression level of collagen I, fold change compared to vehicle control (FIG. 11B) [5, 6] [fold] | expression level of collagen I, fold change compared to vehicle control (FIG. 11B) ([5]; rhHAPLN1 11 ng/ml) [fold]
Cc1ccc(=O)n(-c2ccccc2)c1 [pirfenidone, reference compound] | ≥ 100 | – | – | – | – | – | – | – | – | –
rhHAPLN1: recombinant human HAPLN1 protein of SEQ ID NO: 1 produced in CHO-K1 cells, stabilized in acetic acid buffer, sucrose, PS80, pH 5.0 (protein, listed as Homo sapiens) MKSLLLLVLISICWADHLSDNYTLDHDRAIHIQAENGPHLLVEAEQAKVFSHRGGNVTLPCKFYRDPTAFGSGIHKIRIKWTKLTSDYLKEVDVFVSMGYHKKTYGGYQGRVFLKGGSDSDASLVITDLTLEDYGRYKCEVIEGLEDDTVVVALDLQGVVFPYFPRLGRYNLNFHEAQQACLDQDAVIASFDQLYDAWRGGLDWCNAGWLSDGSVQYPITKPREPCGGQNTVPGVRNYGFWDKDKSRYDVFCFTSNFNGRFYYLIHPTKLTYDEAVQACLNDGAQIAKVGQIFAAWKILGYDRCDAGWLADGSVRYPISRPRRRCSPTEAAVRFVGFPDKKHKLYGVYCFRAYN | – | almost equivalent to that of pirfenidone | superior anti-fibrotic action; also recorded: excellent anti-fibrotic efficacy | consistently significantly reduced | ≤ 0.9 | ≤ 0.8 | about ⅓ | 11 | ≤ 0.9 | ~0.7
